T1: CEACAM5 (R&D Systems, 4128-CM-050) (human, UniProt P06731 35-685)
T1 construct: Immobilised on the ELISA plate; also called human CEACAM5
T1 sequence (looked up): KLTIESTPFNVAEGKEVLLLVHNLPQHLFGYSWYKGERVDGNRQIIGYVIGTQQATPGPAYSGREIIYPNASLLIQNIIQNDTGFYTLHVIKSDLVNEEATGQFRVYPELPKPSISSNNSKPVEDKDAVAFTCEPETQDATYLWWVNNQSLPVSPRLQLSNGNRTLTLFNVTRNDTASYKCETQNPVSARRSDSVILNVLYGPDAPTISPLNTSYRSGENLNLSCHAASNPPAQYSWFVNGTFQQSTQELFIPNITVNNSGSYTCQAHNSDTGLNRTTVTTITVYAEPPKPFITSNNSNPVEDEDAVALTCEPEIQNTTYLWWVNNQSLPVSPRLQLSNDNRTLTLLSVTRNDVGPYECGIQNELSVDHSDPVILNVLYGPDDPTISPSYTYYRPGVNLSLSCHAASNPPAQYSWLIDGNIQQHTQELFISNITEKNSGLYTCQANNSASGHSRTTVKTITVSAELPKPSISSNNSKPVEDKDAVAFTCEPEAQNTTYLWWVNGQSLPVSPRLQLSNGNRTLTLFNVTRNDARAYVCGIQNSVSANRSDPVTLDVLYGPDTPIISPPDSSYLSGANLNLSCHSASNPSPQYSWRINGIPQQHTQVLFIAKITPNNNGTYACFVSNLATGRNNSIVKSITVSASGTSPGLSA

B1: (Y-S1-X)p-Fab^2 with Y Gd/DOTA, S1 -NH-CH2-(1,3-Ph)-C(═O)-, X -Gly-Lys*-Z2(#S)- (Fab, V domains shown)
VH: EVQLVESGGGLVQPGGSLRLSCAASGFNIRDTYMHWVRQAPGKGLEWVARIDPANGNSRYVPKFQGRFTISADTSRNTAYLQMNSLRAEDTAVYYCAPFGYYVSDYAMAYWGQGTLVTVSS
VL: DIQLTQSPSSLSASVGDRVTITCRAGESVDIFGVGFLHWYQQKPGKAPKLLIYRASNLESGIPSRFSGSGSRTDFTLTISSLQPEDFATYYCQQTNEDPYTFGQGTKVEIKR
modifications: labeling may sit on this chain; sites not stated; labeling portion (MW 1059) on amino groups of the Fab, sites and chain not stated; 1-2 per Fab by MS
notes: also called Ex-No 6; conjugate 6
B2: (Y-S1-X)p-Fab^2 with Y Gd/DOTA, S1 - (bond), X -Met-Ile-Lys*-Z2(#N)- (Fab, V domains shown)
VH: EVQLVESGGGLVQPGGSLRLSCAASGFNIRDTYMHWVRQAPGKGLEWVARIDPANGNSRYVPKFQGRFTISADTSRNTAYLQMNSLRAEDTAVYYCAPFGYYVSDYAMAYWGQGTLVTVSS
VL: DIQLTQSPSSLSASVGDRVTITCRAGESVDIFGVGFLHWYQQKPGKAPKLLIYRASNLESGIPSRFSGSGSRTDFTLTISSLQPEDFATYYCQQTNEDPYTFGQGTKVEIKR
modifications: labeling may sit on this chain; sites not stated; labeling portion (MW 1012) on amino groups of the Fab, sites and chain not stated; 1-2 per Fab by MS
notes: also called Ex-No 10; conjugate 10
B3: (Y-S1-X)p-Fab^2 with Y Gd/DOTA, S1 - (bond), X -Gly-Tyr*-CH2(═O)-NH-(CH2)2-Z1(#N)- (Fab, V domains shown)
VH: EVQLVESGGGLVQPGGSLRLSCAASGFNIRDTYMHWVRQAPGKGLEWVARIDPANGNSRYVPKFQGRFTISADTSRNTAYLQMNSLRAEDTAVYYCAPFGYYVSDYAMAYWGQGTLVTVSS
VL: DIQLTQSPSSLSASVGDRVTITCRAGESVDIFGVGFLHWYQQKPGKAPKLLIYRASNLESGIPSRFSGSGSRTDFTLTISSLQPEDFATYYCQQTNEDPYTFGQGTKVEIKR
modifications: labeling may sit on this chain; sites not stated; labeling portion (MW 960) on amino groups of the Fab, sites and chain not stated; 1-4 per Fab by MS
notes: also called Ex-No 21; conjugate 21
B4: [Gd/DOTA-NH-CH2-(1,4-Ph)-NH-C(═O)-Met-Ile-NH-(CH2)2-Z1(#N)]p-Fab^2 (Fab, V domains shown)
VH: EVQLVESGGGLVQPGGSLRLSCAASGFNIRDTYMHWVRQAPGKGLEWVARIDPANGNSRYVPKFQGRFTISADTSRNTAYLQMNSLRAEDTAVYYCAPFGYYVSDYAMAYWGQGTLVTVSS
VL: DIQLTQSPSSLSASVGDRVTITCRAGESVDIFGVGFLHWYQQKPGKAPKLLIYRASNLESGIPSRFSGSGSRTDFTLTISSLQPEDFATYYCQQTNEDPYTFGQGTKVEIKR
modifications: labeling may sit on this chain; sites not stated; labeling portion (MW 1074) on amino groups of the Fab, sites and chain not stated; 1-3 per Fab by MS
notes: also called Ex-No 18; Conjugate No. 18
B5: (Y-S1-X)p-Fab^2 with Y Gd/DOTA, S1 - (bond), X -Gly-Tyr*-CH2-C(═O)-NH-(CH2O)3-CH2-C(═O)-NH-(CH2)2-Z1(#N)- (Fab, V domains shown)
VH: EVQLVESGGGLVQPGGSLRLSCAASGFNIRDTYMHWVRQAPGKGLEWVARIDPANGNSRYVPKFQGRFTISADTSRNTAYLQMNSLRAEDTAVYYCAPFGYYVSDYAMAYWGQGTLVTVSS
VL: DIQLTQSPSSLSASVGDRVTITCRAGESVDIFGVGFLHWYQQKPGKAPKLLIYRASNLESGIPSRFSGSGSRTDFTLTISSLQPEDFATYYCQQTNEDPYTFGQGTKVEIKR
modifications: labeling may sit on this chain; sites not stated; labeling portion (MW 1149) on amino groups of the Fab, sites and chain not stated; 1-2 per Fab by MS
notes: also called Ex-No 17; conjugate 17
B6: [Gd/4arm-DOTA-CH2-(1,4-Ph)-NH-C(═S)-Gly-Phe-Lys*-Z2(#N)]p-Fab^2 (Fab, V domains shown)
VH: EVQLVESGGGLVQPGGSLRLSCAASGFNIRDTYMHWVRQAPGKGLEWVARIDPANGNSRYVPKFQGRFTISADTSRNTAYLQMNSLRAEDTAVYYCAPFGYYVSDYAMAYWGQGTLVTVSS
VL: DIQLTQSPSSLSASVGDRVTITCRAGESVDIFGVGFLHWYQQKPGKAPKLLIYRASNLESGIPSRFSGSGSRTDFTLTISSLQPEDFATYYCQQTNEDPYTFGQGTKVEIKR
modifications: labeling may sit on this chain; sites not stated; labeling portion (MW 1136) on amino groups of the Fab, sites and chain not stated; 1-3 per Fab by MS
notes: also called Ex-No 12; Conjugate No. 12
B7: [Gd/DOTA-NH-(CH2CH2O)3-CH2-C(═O)-NH-CH2-(1,3-Ph)-C(═O)-Gly-Lys*-Z2(#N)]p-Fab^2 (Fab, V domains shown)
VH: EVQLVESGGGLVQPGGSLRLSCAASGFNIRDTYMHWVRQAPGKGLEWVARIDPANGNSRYVPKFQGRFTISADTSRNTAYLQMNSLRAEDTAVYYCAPFGYYVSDYAMAYWGQGTLVTVSS
VL: DIQLTQSPSSLSASVGDRVTITCRAGESVDIFGVGFLHWYQQKPGKAPKLLIYRASNLESGIPSRFSGSGSRTDFTLTISSLQPEDFATYYCQQTNEDPYTFGQGTKVEIKR
modifications: labeling may sit on this chain; sites not stated; labeling portion (MW 1147) on amino groups of the Fab, sites and chain not stated; 1-3 per Fab by MS
notes: also called Ex-No 15; Conjugate No. 15

This assay deals with T1, CEACAM5 (R&D Systems, 4128-CM-050). Nature of the assay: ELISA on immobilised CEACAM5, 4-parameter fit, duplicate. The procedure: Each anti-human CEACAM5 antibody Fab fragment conjugate prepared in Example 2 was subjected to ELISA to evaluate the binding activity thereof to CEACAM5. In the present test, a phosphate buffer (Nacalai Tesque Inc., 0.1 mol/L-Phosphate Buffer Solution (pH 7.2)) prepared to 10 mM by diluting 10-fold with distilled water was used as a solvent for an antigen immobilization liquid, and 20×PBS/Tween 20 Buffer (Thermo Fisher Scientific Inc., 28352) diluted 20-fold with distilled water was used as a wash liquid. In addition, for bovine serum albumin (BSA) used in the present test, 30% Bovine Serum Albumin solution (Sigma-Aldrich, Inc., A9576-50ML) was added in an appropriate proportion for use. CEACAM5 (R&D Systems, 4128-CM-050) was diluted with a 10 mM phosphate buffer (pH 7.2) to 0.1 μg/mL, and added to a Nunc MaxiSorp White 384 plate (Nunc, 4603272) at 30 μL per well, and the plate was incubated overnight at 4° C. for immobilization. The CEACAM5 immobilization liquid was removed by reverse centrifugation, and then blocking was carried out by adding a PBS/Tween 20 buffer containing 5.0% BSA. Thereafter, the blocking solution was removed by reverse centrifugation, a solution of each CEACAM5 antibody Fab² fragment conjugate described above or a Fab² fragment having no labeling portion (PB009-01) as a control at about 10000 ng/mL was diluted in 14 steps by 3-fold dilution using a PBS/Tween 20 buffer containing 1.0% BSA, and 30 μL was added per well and incubated at room temperature for 60 minutes. The plate was washed 3 times with a PBS/Tween 20 buffer, and Horseradish Peroxidase (HRP)-labeled goat anti-human IgG (H+L chain) antibody (MBL Life Sciences, 206) diluted 1000-fold using a PBS/Tween 20 buffer containing 5.0% BSA was added at 30 μL per well and incubated at room temperature for 30 minutes. The plate was washed 3 times with a PBS/Tween 20 buffer, and ECL Prime Western Blotting DETECTION Reagent (GE Healthcare, RPN2232) as a substrate was added at 30 μL per well. The substrate was incubated at room temperature for 15 minutes, and then a signal value thereof was measured using an Envision counter (PerkinElmer, Inc.).
The test for each antibody was carried out in duplicate, and an EC₅₀ value was calculated using a 4-parameter logistic curve model.
A word on the EC50: it is the concentration that produces a half-maximal response. The molecule B1 displayed an EC50 of 0.14 nM. On to B2, for which the EC50 stood at 0.11 nM. For B3 the value was 0.27 nM; for B4, 0.24 nM. In the case of B5, a half-maximal response (EC50) required 0.23 nM. For B6 the value was 0.11 nM.

For the molecule B7, the half-maximal effective concentration (EC50) amounted to 0.13 nM. This EC50 and that of the molecule before are within 1.5-fold of each other.

These data come from patent US20220096653A1, “CONJUGATE COMPRISING LIGAND AND CEACAM5 ANTIBODY FAB FRAGMENT” (ASTELLAS PHARMA INC., priority 2019, published 2022).
